Patent publication EP0971740B1

Legend:
[1] = biological target: FnBP purified from S. aureus strain Newman (Staphylococcus aureus); assay: competition ELISA on FnBP coated at 5 µg/ml; competitor anti-D121-34 F(ab')2 at 100 µg/ml
[2] = biological target: FnBP purified from S. aureus strain Newman (Staphylococcus aureus); assay: competition ELISA on FnBP coated at 5 µg/ml; competitor anti-D320-33 F(ab')2 at 100 µg/ml

Substance: Human plasma Fn (from UniProt P02751 32-2477) (ligand)
- concentration of soluble Fn at which F(ab')2 recognition of FnBP was virtually eliminated [1]: 50 µg/mL
- concentration of soluble Fn at which F(ab')2 recognition of FnBP was virtually eliminated [2]: 50 µg/mL
